From patent EP4534564A1 (ImmuneOnco Biopharmaceuticals (Shanghai) Inc., dated 2025)

Assays:
[1] = molecular target: PD-L1 on CHO-PD-L1 cells (Cat#YMAK-C006, ImmuneOnco) (UniProt Q9NZQ7 19-290, limits assumed); assay: cell-based or functional assay
[2] = molecular target: T1, monkey PD-L1 (Cat#90251-C08H, sino Biological) (monkey, UniProt G7PSE7 19-238); assay: BLI (Gator), human Fc probe, Kinetics Assay mode, 25 C
T1 construct: also called PD-L1-his

[3] = molecular target: recombinant human VEGF-165 protein (Cat#11066-HNAH, Sino Biologicals) (human, UniProt P15692-4 27-191); assay: ELISA, VEGF-165 coated 50 ng/well
Chain of recombinant human VEGF-165 protein (Cat#11066-HNAH, Sino Biologicals) (P15692 other isoform, or with tags, fused parts or gaps limits assumed): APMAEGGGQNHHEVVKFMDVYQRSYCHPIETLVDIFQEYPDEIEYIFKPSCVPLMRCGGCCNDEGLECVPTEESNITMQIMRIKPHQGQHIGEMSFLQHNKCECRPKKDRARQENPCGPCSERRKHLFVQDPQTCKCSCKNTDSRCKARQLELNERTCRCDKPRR

T1 sequence (G7PSE7 entry or part of it C08H C08H limits assumed, form in doubt): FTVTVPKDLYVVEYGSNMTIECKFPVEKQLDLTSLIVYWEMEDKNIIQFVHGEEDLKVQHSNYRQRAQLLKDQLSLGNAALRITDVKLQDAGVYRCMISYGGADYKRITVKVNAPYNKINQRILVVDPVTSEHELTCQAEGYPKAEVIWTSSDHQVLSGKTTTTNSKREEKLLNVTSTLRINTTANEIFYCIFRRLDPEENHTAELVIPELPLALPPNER
Chain of PD-L1 on CHO-PD-L1 cells (Cat#YMAK-C006, ImmuneOnco) (Q9NZQ7 19-290 limits assumed): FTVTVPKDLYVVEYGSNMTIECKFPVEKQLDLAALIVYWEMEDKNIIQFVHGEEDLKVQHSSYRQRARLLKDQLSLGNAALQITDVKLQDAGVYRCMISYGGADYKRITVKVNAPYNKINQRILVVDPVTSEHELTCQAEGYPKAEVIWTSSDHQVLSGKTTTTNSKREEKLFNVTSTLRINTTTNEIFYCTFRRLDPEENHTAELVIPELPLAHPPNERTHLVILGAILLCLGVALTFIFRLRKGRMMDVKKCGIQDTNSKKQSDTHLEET

Row | ADCC (%lysis) against Raji-PD-L1 cells by NK92MI cells expressing FcgRIIIa (158V) [1] [fold lower than IMM2515H] | Kd [2] [nM] | koff [2] [s⁻¹] | kon [2] [M⁻¹ s⁻¹] | binding result [3] | Binder
1 | 6 | 0.441 | 0.000218 | 494000 |  | IMM2518 (bispecific antibody, human IgG1, kappa, Anti-PD-L1 IgG IMM2515H with VEGFR1D2 linked by a (G4S)3 linker to the N-terminus of each heavy chain; also called recombinant fusion protein) heavy: SDTGRPFVEMYSEIPEIIHMTEGRELVIPCRVTSPNITVTLKKFPLDTLIPDGKRIIWDSRKGFIISAATYKEIGLLTCEATVNGHLYKTNYLTHRQTNTGGGGSGGGGSGGGGSQVQLVQSGAEVKKPGASVKVSCKASGYTFTSNWMHWVRQAPGQGLEWMGMIHPNSGSSNYNEKFKSRVTMTRDTSTSTVYMELSSLRSEDTAVYYCARSYYGSSPYYFDYWGQGTLVTVSSASTKGPSVFPLAPSSKSTSGGTAALGCLVKDYFPEPVTVSWNSGALTSGVHTFPAVLQSSGLYSLSSVVTVPSSSLGTQTYICNVNHKPSNTKVDKRVEPKSCDKTHTCPPCPAPELLGGPSVFLFPPKPKDTLMISRTPEVTCVVVDVSHEDPEVKFNWYVDGVEVHNAKTKPREEQYNATYRVVSVLTVLHQDWLNGKEYKCKVSNKALPAPIAATISKAKGQPREPQVYTLPPSREEMTKNQVSLTCLVKGFYPSDIAVEWESNGQPENNYKTTPPVLDSDGSFFLYSKLTVDKSRWQQGNVFSCSVMHEALHNHYTQKSLSLSPGK light: not shown
2 |  |  |  |  | binds | IMM2519 (bispecific antibody, human IgG1, kappa, Anti-PD-L1 IgG IMM2515H with VEGFR1D2 linked by a (G4S)3 linker to the N-terminus of each light chain; also called recombinant fusion protein) heavy: QVQLVQSGAEVKKPGASVKVSCKASGYTFTSNWMHWVRQAPGQGLEWMGMIHPNSGSSNYNEKFKSRVTMTRDTSTSTVYMELSSLRSEDTAVYYCARSYYGSSPYYFDYWGQGTLVTVSSASTKGPSVFPLAPSSKSTSGGTAALGCLVKDYFPEPVTVSWNSGALTSGVHTFPAVLQSSGLYSLSSVVTVPSSSLGTQTYICNVNHKPSNTKVDKRVEPKSCDKTHTCPPCPAPELLGGPSVFLFPPKPKDTLMISRTPEVTCVVVDVSHEDPEVKFNWYVDGVEVHNAKTKPREEQYNATYRVVSVLTVLHQDWLNGKEYKCKVSNKALPAPIAATISKAKGQPREPQVYTLPPSREEMTKNQVSLTCLVKGFYPSDIAVEWESNGQPENNYKTTPPVLDSDGSFFLYSKLTVDKSRWQQGNVFSCSVMHEALHNHYTQKSLSLSPGK light: not shown
